B1: MTSP-1 protease domain Q38H/I41S/D60bT/F60eG/Y60gW/D96V/F97N/T98G/F99L/C122S/G151N/Q175L/Q192D (enzyme)
chain: VVGGTDADEGEWPWQVSLHALGHGHSCGASLISPNWLVSAAHCYIDTRGGRWSDPTQWTAFLGLHDQSQRSAPGVQERRLKRIISHPFFNVNGLDYDIALLELEKPAEYSSMVRPISLPDASHVFPAGKAIWVTGWGHTQYGGTNALILQKGEIRVINQTTCENLLPQLITPRMMCVGFLSGGVDSCDGDSGGPLSSVEADGRIFQAGVVSWGDGCAQRNKPGVYTRLPLFRDWIKENTGV
B2: MTSP-1 protease domain Q38H/I41S/D60bT/F60eG/D96Y/F97N/T98G/F99L/C122S/G151N/Q175L/Q192D (enzyme)
chain: VVGGTDADEGEWPWQVSLHALGHGHSCGASLISPNWLVSAAHCYIDTRGGRYSDPTQWTAFLGLHDQSQRSAPGVQERRLKRIISHPFFNYNGLDYDIALLELEKPAEYSSMVRPISLPDASHVFPAGKAIWVTGWGHTQYGGTNALILQKGEIRVINQTTCENLLPQLITPRMMCVGFLSGGVDSCDGDSGGPLSSVEADGRIFQAGVVSWGDGCAQRNKPGVYTRLPLFRDWIKENTGV
B3: MTSP-1 protease domain Q38E/I41S/D60bW/F60eG/D96M/F97N/T98G/F99L/C122S/G151N/Q175L/Q192D (enzyme)
chain: VVGGTDADEGEWPWQVSLHALGEGHSCGASLISPNWLVSAAHCYIDWRGGRYSDPTQWTAFLGLHDQSQRSAPGVQERRLKRIISHPFFNMNGLDYDIALLELEKPAEYSSMVRPISLPDASHVFPAGKAIWVTGWGHTQYGGTNALILQKGEIRVINQTTCENLLPQLITPRMMCVGFLSGGVDSCDGDSGGPLSSVEADGRIFQAGVVSWGDGCAQRNKPGVYTRLPLFRDWIKENTGV
B4: MTSP-1 protease domain Q38K/I41G/D60bT/F60eG/Y60gW/D96P/F97N/T98G/F99L/C122S/G151N/Q175L/Q192D (enzyme)
chain: VVGGTDADEGEWPWQVSLHALGKGHGCGASLISPNWLVSAAHCYIDTRGGRWSDPTQWTAFLGLHDQSQRSAPGVQERRLKRIISHPFFNPNGLDYDIALLELEKPAEYSSMVRPISLPDASHVFPAGKAIWVTGWGHTQYGGTNALILQKGEIRVINQTTCENLLPQLITPRMMCVGFLSGGVDSCDGDSGGPLSSVEADGRIFQAGVVSWGDGCAQRNKPGVYTRLPLFRDWIKENTGV
B5: MTSP-1 protease domain Q38V/I41G/F60eG/Y60gW/D96P/F97N/T98G/F99L/C122S/G151N/Q175L/Q192D (enzyme)
chain: VVGGTDADEGEWPWQVSLHALGVGHGCGASLISPNWLVSAAHCYIDDRGGRWSDPTQWTAFLGLHDQSQRSAPGVQERRLKRIISHPFFNPNGLDYDIALLELEKPAEYSSMVRPISLPDASHVFPAGKAIWVTGWGHTQYGGTNALILQKGEIRVINQTTCENLLPQLITPRMMCVGFLSGGVDSCDGDSGGPLSSVEADGRIFQAGVVSWGDGCAQRNKPGVYTRLPLFRDWIKENTGV
B6: MTSP-1 protease domain Q38H/I41S/D60bT/F60eG/D96P/F97N/T98G/F99L/C122S/G151Q/Q175L/Q192D (enzyme)
chain: VVGGTDADEGEWPWQVSLHALGHGHSCGASLISPNWLVSAAHCYIDTRGGRYSDPTQWTAFLGLHDQSQRSAPGVQERRLKRIISHPFFNPNGLDYDIALLELEKPAEYSSMVRPISLPDASHVFPAGKAIWVTGWGHTQYGGTQALILQKGEIRVINQTTCENLLPQLITPRMMCVGFLSGGVDSCDGDSGGPLSSVEADGRIFQAGVVSWGDGCAQRNKPGVYTRLPLFRDWIKENTGV
B7: MTSP-1 protease domain Q38Y/I41E/D60bS/F60eV/Y60gF/D96W/F97N/T98G/F99L/C122S/G151N/Q175L/Q192D (enzyme)
chain: VVGGTDADEGEWPWQVSLHALGYGHECGASLISPNWLVSAAHCYIDSRGVRFSDPTQWTAFLGLHDQSQRSAPGVQERRLKRIISHPFFNWNGLDYDIALLELEKPAEYSSMVRPISLPDASHVFPAGKAIWVTGWGHTQYGGTNALILQKGEIRVINQTTCENLLPQLITPRMMCVGFLSGGVDSCDGDSGGPLSSVEADGRIFQAGVVSWGDGCAQRNKPGVYTRLPLFRDWIKENTGV
B8: MTSP-1 protease domain Q38K/I41G/F60eG/Y60gW/D96P/F97N/T98G/F99L/C122S/G151N/Q175L/Q192D (enzyme)
chain: VVGGTDADEGEWPWQVSLHALGKGHGCGASLISPNWLVSAAHCYIDDRGGRWSDPTQWTAFLGLHDQSQRSAPGVQERRLKRIISHPFFNPNGLDYDIALLELEKPAEYSSMVRPISLPDASHVFPAGKAIWVTGWGHTQYGGTNALILQKGEIRVINQTTCENLLPQLITPRMMCVGFLSGGVDSCDGDSGGPLSSVEADGRIFQAGVVSWGDGCAQRNKPGVYTRLPLFRDWIKENTGV
B9: MTSP-1 protease domain Q38K/I41G/D60bT/F60eG/Y60gW/D96L/F97N/T98G/F99L/C122S/G151N/Q175L/Q192D (enzyme)
chain: VVGGTDADEGEWPWQVSLHALGKGHGCGASLISPNWLVSAAHCYIDTRGGRWSDPTQWTAFLGLHDQSQRSAPGVQERRLKRIISHPFFNLNGLDYDIALLELEKPAEYSSMVRPISLPDASHVFPAGKAIWVTGWGHTQYGGTNALILQKGEIRVINQTTCENLLPQLITPRMMCVGFLSGGVDSCDGDSGGPLSSVEADGRIFQAGVVSWGDGCAQRNKPGVYTRLPLFRDWIKENTGV
B10: MTSP-1 protease domain Q38Y/I41A/D60bT/F60eG/Y60gW/D96V/F97N/T98G/F99L/C122S/G151H/Q175L/Q192D (enzyme)
chain: VVGGTDADEGEWPWQVSLHALGYGHACGASLISPNWLVSAAHCYIDTRGGRWSDPTQWTAFLGLHDQSQRSAPGVQERRLKRIISHPFFNVNGLDYDIALLELEKPAEYSSMVRPISLPDASHVFPAGKAIWVTGWGHTQYGGTHALILQKGEIRVINQTTCENLLPQLITPRMMCVGFLSGGVDSCDGDSGGPLSSVEADGRIFQAGVVSWGDGCAQRNKPGVYTRLPLFRDWIKENTGV
B11: MTSP-1 protease domain Q38E/I41S/D60bV/F60eK/Y60gW/D96P/F97N/T98G/F99L/C122S/G151N/Q175L/Q192D (enzyme)
chain: VVGGTDADEGEWPWQVSLHALGEGHSCGASLISPNWLVSAAHCYIDVRGKRWSDPTQWTAFLGLHDQSQRSAPGVQERRLKRIISHPFFNPNGLDYDIALLELEKPAEYSSMVRPISLPDASHVFPAGKAIWVTGWGHTQYGGTNALILQKGEIRVINQTTCENLLPQLITPRMMCVGFLSGGVDSCDGDSGGPLSSVEADGRIFQAGVVSWGDGCAQRNKPGVYTRLPLFRDWIKENTGV
B12: MTSP-1 protease domain Q38H/I41S/D60bT/F60eS/Y60gW/F97D/ins97aA/T98P/F99L/C122S/G151H/Q175L/Q192E (enzyme)
chain: VVGGTDADEGEWPWQVSLHALGHGHSCGASLISPNWLVSAAHCYIDTRGSRWSDPTQWTAFLGLHDQSQRSAPGVQERRLKRIISHPFFNDDAPLDYDIALLELEKPAEYSSMVRPISLPDASHVFPAGKAIWVTGWGHTQYGGTHALILQKGEIRVINQTTCENLLPQLITPRMMCVGFLSGGVDSCEGDSGGPLSSVEADGRIFQAGVVSWGDGCAQRNKPGVYTRLPLFRDWIKENTGV
B13: MTSP-1 Q38H/I41A/D60bT/F60eK/Y60gW/F97T/ins97aE/T98G/F99L/C122S/G151N/Q175L/Q192D (enzyme)
chain: VVGGTDADEGEWPWQVSLHALGHGHACGASLISPNWLVSAAHCYIDTRGKRWSDPTQWTAFLGLHDQSQRSAPGVQERRLKRIISHPFFNDTEGLDYDIALLELEKPAEYSSMVRPISLPDASHVFPAGKAIWVTGWGHTQYGGTNALILQKGEIRVINQTTCENLLPQLITPRMMCVGFLSGGVDSCDGDSGGPLSSVEADGRIFQAGVVSWGDGCAQRNKPGVYTRLPLFRDWIKENTGV
B14: MTSP-1 protease domain Q38H/I41S/D60bT/Y60gW/ins97aV/F97D/T98P/F99L/C122S/G151H/Q175L/Q192E (enzyme)
chain: VVGGTDADEGEWPWQVSLHALGHGHSCGASLISPNWLVSAAHCYIDTRGFRWSDPTQWTAFLGLHDQSQRSAPGVQERRLKRIISHPFFNDDVPLDYDIALLELEKPAEYSSMVRPISLPDASHVFPAGKAIWVTGWGHTQYGGTHALILQKGEIRVINQTTCENLLPQLITPRMMCVGFLSGGVDSCEGDSGGPLSSVEADGRIFQAGVVSWGDGCAQRNKPGVYTRLPLFRDWIKENTGV

Chain of plasma purified human complement protein C3 (human) (P01024 23-667, chain 1 of 2): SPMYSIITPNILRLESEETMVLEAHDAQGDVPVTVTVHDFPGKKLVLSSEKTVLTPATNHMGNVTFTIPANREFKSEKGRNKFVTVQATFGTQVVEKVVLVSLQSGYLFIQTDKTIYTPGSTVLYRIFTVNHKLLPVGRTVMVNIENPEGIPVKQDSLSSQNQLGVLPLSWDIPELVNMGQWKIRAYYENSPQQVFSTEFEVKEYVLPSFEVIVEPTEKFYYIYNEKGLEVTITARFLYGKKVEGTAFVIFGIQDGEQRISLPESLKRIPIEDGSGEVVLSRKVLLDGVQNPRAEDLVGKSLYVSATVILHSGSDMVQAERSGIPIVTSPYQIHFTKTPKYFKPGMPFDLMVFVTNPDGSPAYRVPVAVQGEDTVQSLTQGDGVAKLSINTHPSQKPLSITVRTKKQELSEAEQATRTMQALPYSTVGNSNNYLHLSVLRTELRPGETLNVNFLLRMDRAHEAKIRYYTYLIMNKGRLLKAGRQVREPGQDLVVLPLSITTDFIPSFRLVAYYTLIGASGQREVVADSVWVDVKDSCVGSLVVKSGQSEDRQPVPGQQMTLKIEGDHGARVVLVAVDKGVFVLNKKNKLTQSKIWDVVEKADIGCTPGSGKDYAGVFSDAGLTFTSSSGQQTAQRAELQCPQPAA
Chain of plasma purified human complement protein C3 (human) (P01024 672-1663, chain 2 of 2): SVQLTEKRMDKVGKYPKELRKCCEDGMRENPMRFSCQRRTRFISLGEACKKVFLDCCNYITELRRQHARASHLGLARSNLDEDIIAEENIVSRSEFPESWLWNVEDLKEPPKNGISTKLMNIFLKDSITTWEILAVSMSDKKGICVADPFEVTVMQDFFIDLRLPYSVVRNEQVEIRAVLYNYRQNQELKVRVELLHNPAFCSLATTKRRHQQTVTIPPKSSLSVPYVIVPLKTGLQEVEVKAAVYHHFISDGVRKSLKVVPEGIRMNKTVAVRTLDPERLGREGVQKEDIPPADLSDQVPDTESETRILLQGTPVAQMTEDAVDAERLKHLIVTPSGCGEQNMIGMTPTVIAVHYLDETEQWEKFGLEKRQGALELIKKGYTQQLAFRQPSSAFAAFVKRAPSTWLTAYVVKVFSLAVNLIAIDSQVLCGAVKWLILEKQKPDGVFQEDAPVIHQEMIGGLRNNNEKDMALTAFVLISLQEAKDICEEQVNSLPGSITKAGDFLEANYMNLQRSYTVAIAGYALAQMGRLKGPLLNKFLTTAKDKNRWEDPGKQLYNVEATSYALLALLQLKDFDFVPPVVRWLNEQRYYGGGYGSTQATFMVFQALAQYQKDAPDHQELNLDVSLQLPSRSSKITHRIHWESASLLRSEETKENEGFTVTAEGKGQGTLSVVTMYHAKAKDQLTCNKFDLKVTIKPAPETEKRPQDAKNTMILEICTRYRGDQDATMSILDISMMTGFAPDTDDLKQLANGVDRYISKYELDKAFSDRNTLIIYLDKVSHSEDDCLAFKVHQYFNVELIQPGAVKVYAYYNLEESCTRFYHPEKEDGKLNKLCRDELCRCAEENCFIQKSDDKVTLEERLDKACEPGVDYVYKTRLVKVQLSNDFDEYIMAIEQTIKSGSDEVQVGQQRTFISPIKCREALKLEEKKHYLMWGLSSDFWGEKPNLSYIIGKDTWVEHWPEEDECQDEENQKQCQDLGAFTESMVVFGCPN

This experiment addresses plasma purified human complement protein C3 (human) (UniProt P01024). The experiment is described as follows: cell-based or functional assay.
Take B1: the EC50 hC3 cleavage is 4.47 nM.

In turn, B2 came in with an EC50 hC3 cleavage of 9.56 nM.

Molecule B3 came in with an EC50 hC3 cleavage of 22.3 nM.

B4 returned an EC50 hC3 cleavage of 27.4 nM.

Molecule B5 registered an EC50 hC3 cleavage of 27.4 nM.

B6 showed an EC50 hC3 cleavage of 34.2 nM.

Turning to B7, the EC50 hC3 cleavage was 227 nM.

In the case of B8, the EC50 hC3 cleavage was determined as 62.7 nM.

As for B9, the EC50 hC3 cleavage is 12.5 nM.

With B10, the EC50 hC3 cleavage stood at 5.06 nM.

In the case of B11, the EC50 hC3 cleavage worked out at 45.9 nM.

B12: the EC50 hC3 cleavage is 4.07 nM.

Molecule B13 displayed an EC50 of hC3 cleavage of 14.4 nM.

In turn, B14 registered an EC50 hC3 cleavage of 10.4 nM.
